One assay deals with lactotransferrin (human, UniProt P02788). Description: ELISA.
For the next assay, the target named is transferrin (human, UniProt P02787). The assay can be described thus: ELISA. On the technique in general: In an ELISA, binding on a coated surface is turned into a signal by an enzyme label.
Sequence of transferrin (P02787 20-698): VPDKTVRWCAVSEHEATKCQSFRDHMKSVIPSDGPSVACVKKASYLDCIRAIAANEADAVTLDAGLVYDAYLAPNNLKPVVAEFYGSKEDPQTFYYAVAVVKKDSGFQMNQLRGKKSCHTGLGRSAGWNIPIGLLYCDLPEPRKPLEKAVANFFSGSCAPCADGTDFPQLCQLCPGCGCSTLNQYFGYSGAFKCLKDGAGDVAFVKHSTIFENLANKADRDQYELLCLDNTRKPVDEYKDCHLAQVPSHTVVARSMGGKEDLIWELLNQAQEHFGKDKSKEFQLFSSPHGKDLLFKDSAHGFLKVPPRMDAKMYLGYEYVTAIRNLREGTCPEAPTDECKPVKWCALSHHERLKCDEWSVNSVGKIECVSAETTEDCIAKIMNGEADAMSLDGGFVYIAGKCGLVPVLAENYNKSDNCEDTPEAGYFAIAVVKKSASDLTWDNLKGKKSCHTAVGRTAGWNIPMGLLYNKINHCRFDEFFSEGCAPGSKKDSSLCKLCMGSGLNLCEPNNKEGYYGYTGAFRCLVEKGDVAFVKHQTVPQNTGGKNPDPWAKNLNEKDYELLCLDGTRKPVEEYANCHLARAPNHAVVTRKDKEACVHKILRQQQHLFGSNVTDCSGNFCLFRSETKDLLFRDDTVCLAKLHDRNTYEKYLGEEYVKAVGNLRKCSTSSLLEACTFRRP

Sequence of lactotransferrin (P02788 20-710): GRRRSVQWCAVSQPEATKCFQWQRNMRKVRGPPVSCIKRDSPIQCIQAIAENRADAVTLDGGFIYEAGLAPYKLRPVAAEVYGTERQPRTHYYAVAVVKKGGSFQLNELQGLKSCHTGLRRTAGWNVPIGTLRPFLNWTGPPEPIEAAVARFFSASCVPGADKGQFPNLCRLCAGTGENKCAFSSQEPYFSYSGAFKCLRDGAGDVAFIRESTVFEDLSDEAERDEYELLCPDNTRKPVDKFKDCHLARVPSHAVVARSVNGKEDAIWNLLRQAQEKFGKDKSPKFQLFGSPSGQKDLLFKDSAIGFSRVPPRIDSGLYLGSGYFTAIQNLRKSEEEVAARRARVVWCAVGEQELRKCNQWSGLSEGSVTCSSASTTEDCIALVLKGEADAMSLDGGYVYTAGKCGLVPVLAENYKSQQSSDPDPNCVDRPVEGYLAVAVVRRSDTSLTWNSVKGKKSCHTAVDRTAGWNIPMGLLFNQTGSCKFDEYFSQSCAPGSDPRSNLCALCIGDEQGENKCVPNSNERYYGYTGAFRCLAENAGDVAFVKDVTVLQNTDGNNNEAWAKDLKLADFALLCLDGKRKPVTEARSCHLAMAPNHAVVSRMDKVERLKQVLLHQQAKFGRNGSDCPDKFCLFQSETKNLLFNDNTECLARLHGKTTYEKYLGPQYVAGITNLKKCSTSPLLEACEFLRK

B1: OMT36 (clone 36) (antibody, V domains shown)
VH: QVQLVQSGAEVKKPGASVKVSCKASGYTFTNYDINWVRQATGQGLEWMGWMNPNSGNTDYVQKFQGRVAMTRITSISTAYLELSSLRSDDTAVYYCARGLHSGDYYSYGMDVWGQGTTVTVSS
VL: SYELTQPPSVSVSPGQTARITCSGDALPNQYAYWYQQKPGQAPVLVIYKDSERPSGIPERFSGSSSGTTVTLTISGVQAEDEADYYCQSADSSGTVVFGGGTKLSVL
As for B1, the binding result with lactotransferrin and with transferrin was “no binding” throughout.

B2: OMT35 (clone 35) (antibody, V domains shown)
VH: QVQLQQSGPGLVKPSQTLSLTCAISGDSVSSNSAAWNWIRQSPSSGLEWLGRTYYRSKWFDDYAVSVKGRITINPDTSKNQFSLQLKFVIPEDTAVYYCARRVHWGGPFDYWGQGTLVTVSS
VL: DIQLTQSPSFLSASVGDRVTITCRASQGISSYLAWYQQRPGKAPKVLISVASTLQSGVPSRFSGSGSGTDFTLTISSLQPEDFATYYCQQLTGYPFTFGPGTKVDIK
In the case of B2, the binding result with lactotransferrin and in the assay with transferrin was “no binding” in each case.

B3: OMT30 (clone 30) (antibody, V domains shown)
VH: QVQLVESGGGVVQPGRSLRLSCAASGFTFSSYGIHWVRQAPGKGLEWVAVIWYDGSNKYYADSVKGRFTISRDNSKNTLYLQMNSLRAEDTAVYYCARRGDSSSWHFDYWGQGTLVTVSS
VL: QSALTQPASVSGSPGQSITISCTGTSSDVGRHNLVSWYQQHPGKVPKVMIYEVTKRPAGVSNRFSGSKSGNTASLTISGLQAEDEADYYCCSYAGSSTYVFGTGTRVTVL
As for B3, the binding result with lactotransferrin and with transferrin was “no binding” each time.

B4: OMT24 (clone 24) (antibody, V domains shown)
VH: QVQLVQSGSELKKPGASVKVSCKASGYTFTTYVMNWVRQAPGQGLEWMGWINTNTGNPTYAQGFTGRFVFSVDTSVSTAYLQISSLKAEDTAVYYCARDRVLLWFGAGYYHYGMDVWGQGTTVTVSS
VL: SSELTQDPAVSVALGQTVRITCQGDSLRSYYTSWYQQKPGQAPVFVIYGKNNRPSGIPDRFSGSSSGNTASLTITGAQAEDEADYYCNSRDSSGNHVVFGGGTKLTVL
On to B4, for which the binding result with lactotransferrin and with transferrin was “no binding” in each case.

B5: OMT8 (clone 8) (antibody, V domains shown)
VH: QVQLQESGPGLVKPSQTLSLTCTVSGGSISSGGYYWSWIRQHPGKGLEWIGYIHYIGSTYQNPSLKSRVTMSVDTSKNQFSLRLTSVTAADTAVYYCARESGDTAMVFDYWGQGTQVTVSS
VL: QSALTQPPSASGSPGQSVTISCTGTSSDVGGYNYVSWYQQHPGKAPKVMIYEVSTRPSGVPDRFSGSKSGNTASLTVSGLQAEDEADYYCSSYAGNNNFVFGTGTKVTVL
For B5, the binding result in the assay with lactotransferrin and in the assay with transferrin was “no binding” each time.

Values taken from patent US20260347495 (published 2026).
